# According to paper doi:10.1101/565937:
# B1: Nrf2 3'-UTR Site 1 (ssRNA)
# RNA: GCUAGUUUUUUUGUACUAUU
# B2: Nrf2 3'-UTR Site 2 (ssRNA)
# RNA: AAAAACUUAUUUAUACUGUU
# B3: Nrf2 3'-UTR Site 3 (ssRNA)
# RNA: AAAAAAAUUUUAAGAGCUGG
# Key:
# Experiment in all cases: EMSA
# HuR [1] = molecular target: T1, HuR (UniProt Q15717 1-326)
# AUF1p37 = AUF1p37 (Homo sapiens, UniProt Q14103-4 1-287)
# HuR [2] = molecular target: T1, HuR; remark: listed apart in the source
# T1 sequence (Q15717 whole entry): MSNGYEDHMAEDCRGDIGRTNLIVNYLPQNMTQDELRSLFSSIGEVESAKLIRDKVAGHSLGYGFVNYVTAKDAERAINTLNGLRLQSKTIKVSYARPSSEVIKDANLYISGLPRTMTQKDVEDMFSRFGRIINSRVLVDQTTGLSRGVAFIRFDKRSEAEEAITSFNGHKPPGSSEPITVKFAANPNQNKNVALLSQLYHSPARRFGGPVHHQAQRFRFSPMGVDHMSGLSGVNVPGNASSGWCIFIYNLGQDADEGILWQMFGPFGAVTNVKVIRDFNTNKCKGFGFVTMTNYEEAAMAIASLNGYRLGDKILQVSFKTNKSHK
Binder,Kd (HuR [1]),Kd (AUF1p37),binding result (HuR [2])
B1,0.02 ± 0.005 µM,0.006 ± 0.002 µM,
B2,,0.025 ± 0.004 µM,no binding
B3,0.075 ± 0.02 µM,0.67 ± 0.082 µM,
